In patent US20220073599A1 (Hoffmann-La Roche, published 2022):
Positions count from the first letter of the chain named.

Columns and labels:
[1] = molecular target: T1, human VEGFA-121-His (human, UniProt P15692 181-395); test: SPR, VEGF-A121-His captured by anti-His antibody, Fab injected, single cycle kinetics
T1 construct: Prepared in-house; not shown: His tag
T1 sequence: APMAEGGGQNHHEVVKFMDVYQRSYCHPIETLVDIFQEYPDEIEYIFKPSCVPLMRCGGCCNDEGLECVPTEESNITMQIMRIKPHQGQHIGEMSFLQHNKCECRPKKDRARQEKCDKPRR
Experimental: (§1) An anti-His capturing antibody (GE Healthcare 28995056) was immobilized to a Series S Sensor Chip C1 (GE Healthcare BR100535) using standard amine coupling chemistry resulting in a surface density of approximately 600 resonance units (RU). As running and dilution buffer, HBS-P+ (10 mM HEPES, 150 mM NaCl pH 7.4, 0.05% Surfactant P20) was used. […] A dilution series of the tested antibody (3.7-300 nM, 1:3 dilution) was successively injected for 60 s each, dissociation was monitored for 3600 s at a flow rate of 30 μl/min (single cycle kinetics). The surface was regenerated by injecting 10 mM Glycine pH 1.5 for 60 s at a flow of 5 μl/min. […] Curve fitting was performed using the 1:1 Langmuir binding model within the Biacore® evaluation software.
(§2) Binding kinetics to human VEGF-A and human ANG2 for the candidate antibodies were assessed as described above using the indicated Fab fragments (amino acid sequence as illustrated in Table 4).

[2] = molecular target: T1, human VEGFA-121-His; test: KinExA equilibrium titration in solution, constant VEGFA-121-His
Experimental: All KinExA® experiments were performed at room temperature (RT) using PBS pH 7.4 with 0.01% BSA and 0.01% Tween® 20 (BioRad, #161-0781) as running buffer. […] A flow rate of 0.25 ml/min was used. […] Antigen-antibody complexes were incubated at RT for at least 8 h to allow equilibrium to be reached. […] Each sample was measured in duplicates for all equilibrium experiments. The KD was obtained from non-linear regression analysis of the data using a one-site homogeneous binding model contained within the KinExA® software (Version 4.0.11) using the “standard analysis” method. The software calculates the KD and determines the 95% confidence interval by fitting the data points to a theoretical KD curve. The 95% confidence interval is given as KD low and KD high.
as §2

[3] = molecular target: T1, human VEGFA-121-His; test: SPR, VEGF-A121-His captured by anti-His antibody, Fab injected, single cycle kinetics, 1:1 fit
Experimental: as §1, §2

[4] = molecular target: T2, human Ang2-RBD-muFc (human, UniProt O15123 275-496, limits assumed); test: KinExA equilibrium titration in solution, constant Ang2-RBD-muFc
T2 construct: also called Human ANG2 (KinExA); not shown: murine Fc (muFc)
T2 sequence: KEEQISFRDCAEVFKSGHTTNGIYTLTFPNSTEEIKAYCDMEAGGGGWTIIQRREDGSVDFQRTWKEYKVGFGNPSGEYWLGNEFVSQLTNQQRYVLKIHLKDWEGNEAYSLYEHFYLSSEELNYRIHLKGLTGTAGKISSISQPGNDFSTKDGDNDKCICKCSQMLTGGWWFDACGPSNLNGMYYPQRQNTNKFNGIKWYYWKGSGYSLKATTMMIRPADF
Experimental: All KinExA® experiments were performed at room temperature (RT) using PBS pH 7.4 with 0.01% BSA and 0.01% Tween® 20 (BioRad, #161-0781) as running buffer. […] A flow rate of 0.25 ml/min was used. A constant amount of Ang2-RBD-muFc (50 pM and in a second experiment 500 pM) was titrated with tested antibody by twofold serial dilution starting at 4 nM (concentration range 1.95 pM-4000 pM). Antigen-antibody complexes were incubated at RT for at least 8 h to allow equilibrium to be reached. Equilibrated mixtures were then drawn through a column of Anti-Ang2 antibody (MAB098) coupled beads in the KinExA® system at a volume of 750 μl for 50 pM constant Ang2 and at a volume of 188 μl for 500 pM constant Ang2 permitting unbound Ang2 to be captured by the beads without perturbing the equilibrium state of the solution. Bound Ang2 was detected using a second biotinylated anti-Ang2 antibody (BAM0981) with a concentration of 250 ng/ml and following by an injection of 250 ng/ml Streptavidin Alexa Fluor™ 647 conjugate in sample buffer. Each sample was measured in duplicates for all equilibrium experiments. The KD was obtained from non-linear regression analysis of the data using a one-site homogeneous binding model contained within the KinExA® software (Version 4.0.11) using the “standard analysis” method. The software calculates the KD and determines the 95% confidence interval by fitting the data points to a theoretical KD curve. The 95% confidence interval is given as KD low and KD high.

[5] = molecular target: T3, human Ang2-RBD (human, UniProt O15123 275-496, limits assumed); test: SPR, Fab captured by anti-Fab antibody, Ang2-RBD injected, 25 C
T3 construct: also called Human ANG2 (SPR); Angiopoietin 2-RBD
T3 sequence: T2 sequence
Experimental: (§3) An anti-Fab capturing antibody (GE Healthcare 28958325) was immobilized to a Series S Sensor Chip C1 (GE Healthcare BR100535) using standard amine coupling chemistry resulting in a surface density of approximately 800 resonance units (RU). As running and dilution buffer, HBS-P+ (10 mM HEPES, 150 mM NaCl pH 7.4, 0.05% Surfactant P20) was used, the temperature of measurement was 25° C. The tested antibody was captured by injecting a 50 nM solution for 60 sec at a flow of 5 μl/min. Association was measured by injection of human Ang2-RBD in various concentrations in solution for 180 sec at a flow of 30 μl/min (0.07 nM-50 nM, 1:3 dilution). The dissociation phase was monitored for up to 900 sec and triggered by switching from the sample solution to running buffer at a flow rate of 30 μl/min. The surface was regenerated by injection of 10 mM Glycine pH 2.1 for 60 s at a flow rate of 30 μl/min. Bulk refractive index differences were corrected by subtracting blank injections and by subtracting the response obtained from the reference flow cell without captured tested antibody. Curve fitting was performed using the 1:1 Langmuir binding model within the Biacore® evaluation software.
as §2

[6] = molecular target: T1, human VEGFA-121-His; test: SPR, VEGF-A121-His captured by anti-His antibody, Fab injected, single cycle kinetics; marked outside of Biacore specification
Experimental: as §1, §2

[7] = molecular target: T3, human Ang2-RBD; test: SPR, Fab captured by anti-Fab antibody, Ang2-RBD injected, 25 C, 1:1 fit
Experimental: as §3, §2

B1: bispecific anti-VEGF-A/anti-ANG2 Fab fragment P1AA0902 (Fab, V domains shown)
VH: DDHLVESGGGLVKPGGSLRLSCATADFFEYDDMSWVRQAPGKGLEWVGSISGRGDHKYLNTKFIGRFTISRDDSKNTLYLQMNSLRAEDTAVYYCARDVGFFDWWGQGTLVTVSS
VL: AIYMHQEPSSLSASVGDRVTITCHGSYWLNSELAWYQQKPGKAPKLLIFDGDFKVFDVPSRFSGSGSHEDYTLTISSLQPEDFATYYCQQYRYHPYTFGHGTKVEIKR
notes: Bispecific Fab with two paratopes in one VH/VL pair
t1/2 [1]: 1400 min | Kd [2]: 0.0114 nM | kon [3]: 737000 M⁻¹ s⁻¹ | Kd [4]: 2.75 pM | t1/2 [5]: 109 min | Kd [6]: 11 pM | koff [6]: 8.27e-06 s⁻¹ | Kd [7]: 0.019 nM | koff [7]: 0.000106 s⁻¹ | kon [7]: 5.51e+06 M⁻¹ s⁻¹

B2: bispecific anti-VEGF-A/anti-ANG2 Fab fragment P1AA8906 (Fab, V domains shown)
VH: DFQLVESGGGLVKPGGSLRLSCAASYEFEYDDMSWVRQAPGKGLEWVGSISPKGGSTYYNTKFIGRFTISRDNSKNTLYLQMNSLRAEDTAVYYCARDVGFFDMWGQGTLVTVSS
VL: B1 VL with N30S, S31N, E32Y, G51A, D52R, F53W, K54L, F56H, D57G
notes: Bispecific Fab with two paratopes in one VH/VL pair (DutaFab); CH1 and Ckappa
t1/2 [1]: 2550 min | Kd [2]: 0.0109 nM | kon [3]: 1.66e+06 M⁻¹ s⁻¹ | Kd [4]: 7180 pM | t1/2 [5]: 0.4 min | Kd [6]: 3 pM | koff [6]: 4.53e-06 s⁻¹ | Kd [7]: 4.55 nM | koff [7]: 0.032 s⁻¹ | kon [7]: 7.03e+06 M⁻¹ s⁻¹

B3: bispecific anti-VEGF-A/anti-ANG2 Fab fragment P1AD9820 (Fab, V domains shown)
VH: B1 VH with D1S, D2E, G52P, R53K
VL: B1 VL with L33V, F56Y, D57E
notes: Bispecific Fab with two paratopes in one VH/VL pair; also called P1AD9820 Fab
t1/2 [1]: 1990 min | Kd [2]: 0.00385 nM | kon [3]: 727000 M⁻¹ s⁻¹ | Kd [4]: 1.72 pM | t1/2 [5]: 200 min | Kd [6]: 8 pM | Kd [7]: 0.008 nM | koff [7]: 5.78e-05 s⁻¹ | kon [7]: 7.43e+06 M⁻¹ s⁻¹
